Measured values taken from patent US6610541B2, “Recombinant, active caspases and uses thereof” (Thomas Jefferson University, priority 1998, dated 2003).
Peptide text beside a SMILES is read from it. * marks the point of attachment. Cbz = O=C(OCc1ccccc1)*; CH2F = FC*

Tests used:
[1] = biological target: T1, rev-caspase-3 (Homo sapiens, UniProt P42574); assay: Autocatalytic processing of in vitro translated rev-caspase-3 (SDS-PAGE/autoradiography); type: biochemical; design: T7-tag (15 residues) (N); made in house; host or cells: in vitro translation in rabbit reticulocyte lysate (TNT Kit, Promega)
T1 sequence (P42574 with tags, fused parts or gaps): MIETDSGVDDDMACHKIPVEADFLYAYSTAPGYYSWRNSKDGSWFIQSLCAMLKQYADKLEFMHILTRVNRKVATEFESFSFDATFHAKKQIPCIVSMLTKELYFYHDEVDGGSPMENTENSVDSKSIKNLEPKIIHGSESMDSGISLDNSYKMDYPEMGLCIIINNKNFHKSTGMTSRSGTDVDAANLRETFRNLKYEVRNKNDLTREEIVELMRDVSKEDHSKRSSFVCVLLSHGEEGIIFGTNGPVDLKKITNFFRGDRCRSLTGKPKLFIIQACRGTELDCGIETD
Description: (§1) FIGS. 2B and C are scanned images of autoradiograms representing SDS-PAGE analysis of the autoprocessing of rev-caspase-3 and -6, respectively in the presence of varying levels of selected caspase inhibitors. Rev-caspase-3 (FIG. 2B) or rev-caspase-6 (FIG. 2C) were in vitro translated in the presence of increasing concentrations of DEVD-CHO […]; (SEQ ID NO:52), or zVAD-fmk (0-5 μM). The translation products were then analyzed as in FIG. 2A. WT, wild-type.
(§2) ^35S-labeled caspases (wild-type and rev-caspases) were obtained by in vitro translation in the presence of ^35S-methionine using a coupled transcription/translation system in rabbit reticulocyte lysate using TNT Kit (Promega) according to the manufacturer's recommendations.
(§3) To test the effect of selected caspase inhibitors on the autocatalytic activity of rev-caspase-3 and 6, the rev-caspases were translated as in Example 3, but in the presence of varying amounts of inhibitors.

[2] = biological target: T2, rev-caspase-6 (Homo sapiens, UniProt P55212); assay: Autocatalytic processing of in vitro translated rev-caspase-6 (SDS-PAGE/autoradiography); type: biochemical; design: T7-tag (15 residues) (N); made in house; host or cells: in vitro translation in rabbit reticulocyte lysate (TNT Kit, Promega); settings: at the concentration used (zVAD-fmk 0-5 μM); p35 data not shown
T2 sequence (P55212 with tags, fused parts or gaps): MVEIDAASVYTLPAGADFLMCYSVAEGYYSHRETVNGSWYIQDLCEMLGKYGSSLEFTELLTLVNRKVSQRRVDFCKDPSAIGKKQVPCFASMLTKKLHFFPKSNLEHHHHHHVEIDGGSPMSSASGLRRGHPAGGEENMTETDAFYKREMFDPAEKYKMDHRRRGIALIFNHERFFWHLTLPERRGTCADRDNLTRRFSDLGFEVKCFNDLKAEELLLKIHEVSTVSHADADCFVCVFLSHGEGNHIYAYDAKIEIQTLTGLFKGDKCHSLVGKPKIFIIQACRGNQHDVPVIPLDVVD
Description: as §1, §2, §3

[3] = tested on: MCF-7 cells; assay: Induction of apoptosis in transfected MCF-7 cells (round blue apoptotic cells); type: cell-based, human
Description: FIGS. 4A and B are bar diagrams representing the ability of rev-caspase-3 and -6 to induce apoptosis in MCF-7 cells. MCF-7 cells were transiently transfected with either rev-caspase-3 (FIG. 4A), or rev-caspase-6 (FIG. 4B) expression constructs in combination with 4-fold of CrmA, p35 or Bcl-2 expression constructs, or 20 μM zVAD-fmk. Cells transfected with an empty vector or the wild-type caspase-3 or -6 were used as controls.
To express the rev-caspases in mammalian cells and assay their apoptotic activity, they were amplified with the T7-tag primer and the LS-reverse primers using the pET28a constructs as templates, and subcloned into the mammalian double expression vector pRSC-LacZ (MacFarlane et al., J. Biol. Chem., 272: 25417-25420, 1997; Tsang et al., Bio/Technology, 22: 68, 1997). This vector allows the expression of lacZ under the Rous Sarcoma virus promoter, and the test cDNA under the CMV promoter. To assay for apoptosis, MCF-7 or 293 cells were transfected, using the method commercially available as the Lipofect Amine method (Life Technologies, Inc.), with the pRSC-LacZ constructs in the presence or absence of different apoptosis-inhibitors. 30 h after transfection cells were stained with β-galactosidase and examined for morphological signs of apoptosis. The percentage of round blue apoptotic cells (mean±SD) were represented as a function of total blue cells under each condition (n≧3).
To determine the apoptotic activity of rev-caspase-3 and 6 in vivo, the rev-caspases were expressed in human MCF-7 cells, transfected as explained above in Example 2.

[4] = tested on: human PARP; assay: Cleavage of PARP by bacterially expressed caspases (Western blot); type: biochemical; settings: BL-21 bacterial extracts, 2 h at 37° C.
Description: (§4) FIGS. 3A and B are scanned images representing the SDS-PAGE analysis of the ability of rev-caspase-3 (imaged by western blot) and -6 (imaged by autoradiogram) to cleave PARP and lamin, respectively. In FIG. 3A purified human PARP was incubated with buffer (lane 1) or BL-21 bacterial extracts prepared from bacteria transformed with caspase-3 (lane 2), rev-caspase-3 (lane 3), caspase-6 (lane 4), rev-caspase-6 (lane 5) constructs or empty pET28a vector (lane 6) for 2 h at 37° C. The reaction products were then analyzed by SDS-PAGE and Western blotting with anti-human PARP antibody. In FIG. 3B a cDNA encoding the C-terminus of lamin A (amino acids) which contain the caspase-6 cleavage site (VEIDA); (SEQ ID NO:116), was amplified by PCR and in vitro translated in the presence of ^35S-methionine. The labeled product was incubated with buffer (lane 1) or the BL-21 bacterial extracts listed above for 2 h at 37° C., and then analyzed by SDS-PAGE and autoradiography. The cleavage products are indicated to the right.
(§5) At limited caspase concentrations, poly(ADP) ribose polymerase (PARP) is specifically cleaved by caspase-3 and 7 but not other caspases. Similarly, lamin is specifically cleaved by caspase-6 but not other caspases. […]

[5] = tested on: lamin A; assay: Cleavage of in vitro translated lamin A C-terminus by bacterially expressed caspases; type: biochemical; settings: BL-21 bacterial extracts, 2 h at 37° C.
Description: as §4, §5

[6] = biological target: T3, uncleavable rev-caspase-3 (Homo sapiens, UniProt P42574, D28A/D9A); assay: In vitro translation of uncleavable rev-caspase-3: His6-T7-tag processing; type: biochemical
T3 construct: uncleavable rev-caspase-3 (B); made in house; host or cells: in vitro translation in rabbit reticulocyte lysate (TNT Kit, Promega)
T3 sequence (P42574 with tags, fused parts or gaps D9A/D28A): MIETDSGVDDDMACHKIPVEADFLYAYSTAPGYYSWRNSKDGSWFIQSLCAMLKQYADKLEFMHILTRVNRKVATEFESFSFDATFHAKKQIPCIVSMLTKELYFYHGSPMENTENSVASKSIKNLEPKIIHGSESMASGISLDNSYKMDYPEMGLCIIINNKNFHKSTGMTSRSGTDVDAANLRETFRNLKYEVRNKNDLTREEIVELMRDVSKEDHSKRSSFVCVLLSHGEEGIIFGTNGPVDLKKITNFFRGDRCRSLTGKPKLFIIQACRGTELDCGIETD
Text: FIG. 5A is a scanned image of an autoradiogram representing SDS-PAGE analysis of the enzymatic activity of uncleavable rev-caspase-3. Uncleavable rev-caspase-3 was in vitro translated in the absence or the presence of increasing concentrations of DEVD-CHO (SEQ ID NO:52),. The translation product contains a cleavable 35 residues-long His6-T7-tag at its N-terminus. The active site mutant rev-caspase-3 (Rev C/A) was used as a control. The p32 cleavage product without the His6-T7-tag is indicated to the right.
^35S-labeled caspases (wild-type and rev-caspases) were obtained by in vitro translation in the presence of ^35S-methionine using a coupled transcription/translation system in rabbit reticulocyte lysate using TNT Kit (Promega) according to the manufacturer's recommendations. […] Because the in vitro translated products are present at very low concentration in the reaction mixture, the observed cleavage must be attributed to an intramolecular processing within the caspase heterotetramer.
However, to follow the activity of this molecule a cleavable 35 residue long His6-T7-tag N-terminal to the IETD (SEQ ID NO:53) site was introduced (see FIG. 1B). […] Nevertheless, the translated molecule was active as evident from its ability to cleave its T7-tag to form the p32 species (FIG. 5). In the presence of 400 nM DEVD-CHO (SEQ ID NO:52), processing of the T7-tag was inhibited and only the full length p34 species can be seen. […] Thus by mimicking the mature caspase structure, it is possible to design a contiguous active caspase molecules.

## COC(=O)C[C@H](NC(=O)[C@H](C)NC(=O)[C@@H](NC(=O)OCc1ccccc1)C(C)C)C(=O)CF [z-VAD-fmk] (Cbz-Val-Ala-Asp(OMe)-CH2F)
[1]; at the concentration used (zVAD-fmk 0-5 μM), p35 data not shown
  inhibitory effect on rev-caspase-3 autocatalytic activity compared with rev-caspase-6: nearly an equal inhibitory effect
[1]; in vitro translation of rev-caspase-3
  amount required relative to DEVD-CHO to obtain complete inhibition of caspase-3 activity: ~10 fold
[2]
  inhibitory effect on rev-caspase-6 autocatalytic activity compared with rev-caspase-3: nearly an equal inhibitory effect

B1: rev-caspase-3: contiguous caspase-3 with small subunit fused N-terminal to large subunit, DEVDG cleavage site between them (SEQ ID NO:34) (protein)
chain: MIETDSGVDDDMACHKIPVEADFLYAYSTAPGYYSWRNSKDGSWFIQSLCAMLKQYADKLEFMHILTRVNRKVATEFESFSFDATFHAKKQIPCIVSMLTKELYFYHDEVDGGSPMENTENSVDSKSIKNLEPKIIHGSESMDSGISLDNSYKMDYPEMGLCIIINNKNFHKSTGMTSRSGTDVDAANLRETFRNLKYEVRNKNDLTREEIVELMRDVSKEDHSKRSSFVCVLLSHGEEGIIFGTNGPVDLKKITNFFRGDRCRSLTGKPKLFIIQACRGTELDCGIETD
modifications: OTHER INFORMATION: Rev-Caspase-3 contructed fro m human caspase -3
[3]; 30 h after transfection
  apoptosis in transfected cells: ~90%
[4]
  cleavage of PARP: efficiently cleaved PARP
[1]; rabbit reticulocyte lysate, 35S-methionine
  autocatalytic processing in the in vitro translation reaction (rev-caspase-3 constructs): able to undergo autocatalytic processing

B2: wild-type caspase-3: wild-type human caspase-3 (SEQ ID NO:12) (protein)
chain: MENTENSVDSKSIKNLEPKIIHGSESMDSGISLDNSYKMDYPEMGLCIIINNKNFHKSTGMTSRSGTDVDAANLRETFRNLKYEVRNKNDLTREEIVELMRDVSKEDHSKRSSFVCVLLSHGEEGIIFGTNGPVDLKKITNFFRGDRCRSLTGKPKLFIIQACRGTELDCGIETDSGVDDDMACHKIPVDADFLYAYSTAPGYYSWRNSKDGSWFIQSLCAMLKQYADKLEFMHILTRVNRKVATEFESFSFDATFHAKKQIPCIVSMLTKELYFYH
[4]
  cleavage of PARP: efficiently cleaved PARP

B3: wild-type caspase-6: wild-type human caspase-6 (SEQ ID NO:21) (protein)
chain: MSSASGLRRGHPAGGEENMTETDAFYKREMFDPAEKYKMDHRRRGIALIFNHERFFWHLTLPERRGTCADRDNLTRRFSDLGFEVKCFNDLKAEELLLKIHEVSTVSHADADCFVCVFLSHGEGNHIYAYDAKIEIQTLTGLFKGDKCHSLVGKPKIFIIQACRGNQHDVPVIPLDVVDNQTEKLDTNITEVDAASVYTLPAGADFLMCYSVAEGYYSHRETVNGSWYIQDLCEMLGKYGSSLEFTELLTLVNRKVSQRRVDFCKDPSAIGKKQVPCFASMLTKKLHFFPKSN
[5]
  cleavage of lamin: efficiently cleaved lamin

B4: Noncleavable Rev-caspase-3: rev-caspase-3 with DEVD site removed and Asp9 and 28 mutated (SEQ ID NO:35) (protein)
chain: MIETDSGVDDDMACHKIPVEADFLYAYSTAPGYYSWRNSKDGSWFIQSLCAMLKQYADKLEFMHILTRVNRKVATEFESFSFDATFHAKKQIPCIVSMLTKELYFYHGSPMENTENSVASKSIKNLEPKIIHGSESMASGISLDNSYKMDYPEMGLCIIINNKNFHKSTGMTSRSGTDVDAANLRETFRNLKYEVRNKNDLTREEIVELMRDVSKEDHSKRSSFVCVLLSHGEEGIIFGTNGPVDLKKITNFFRGDRCRSLTGKPKLFIIQACRGTELDCGIETD
modifications: OTHER INFORMATION: Uncleavable Rev-Caspase-3 co ntructed from human caspase -3
[3]
  induction of apoptosis on expression in cells: potently induced apoptosis
[6]
  activity of translated molecule (cleaves its T7-tag to form the p32 species): active
  cleavage between the two subunits upon in vitro translation: no evidence of cleavage between the two subunits
